B1: TET3 peptide 1705-1720 (methylcytosine dioxygenase TET3), 16-mer library wild type / USP8 rhodanese domain (ubiquitin carboxyl-terminal hydrolase 8, residues 174-317) (parent)
chain 1: GLALWEAKMKQLAERA
chain 2: KCETKEKGAITAKELYTMMTDKNISLIIMDARRMQDYQDSCILHSLSVPEEAISPGVTASWIEAHLPDDSKDTWKKRGNVEYVVLLDWFSSAKDLQIGTTLRSLKDALFKWESKTVLRNEPLVLEGGYENWLLCYPQYTTNAKV

Variants of: B1
Experiment: peptide-phage display deep mutational scan (M13, 16-mer library, displayed with a C-terminal GGGSG linker encoded by the 3' flank) selected against the GST-tagged USP8 rhodanese domain, four rounds; NGS counts summed over selection …
Conditions: with USP8 rhodanese domain (ubiquitin carboxyl-terminal hydrolase 8, residues 174-317), 10 µg GST-bait on MaxiSorp, pre-cleared on GST, 2 h at 4 °C, five washes with 0.05% Tween 20 in PBS, not graded, scale: average over two replicas of the peptide's fractional NGS count

screen value | Variant
4.33e-06 | chain 1 GLALWEAKMKQKAERA
1.15e-05 | chain 1 GLALWEAKMKQRAERA
4.33e-06 | chain 1 GLALWEAKMKQMAERA
1.15e-05 | chain 1 GLALWEAKMKQAAERA
4.33e-06 | chain 1 GLALWEAKMKQSAERA
8.66e-06 | chain 1 GLALWEAKMKQFAERA
4.33e-06 | chain 1 GLALWEAKMKQIAERA
2.3e-05 | chain 1 GLAGWEAKMKQLAERA
0.000374 | chain 1 GLARWEAKMKQLAERA
0.000596 | chain 1 GLATWEAKMKQLAERA
0.211 | chain 1 GLAIWEAKMKQLAERA
9.18e-05 | chain 1 GLAAWEAKMKQLAERA
4.33e-06 | chain 1 GLAPWEAKMKQLAERA
4.74e-05 | chain 1 GLASWEAKMKQLAERA
0.00974 | chain 1 GLAVWEAKMKQLAERA
9.1e-05 | chain 1 GLAEWEAKMKQLAERA
0.00113 | chain 1 GLANWEAKMKQLAERA
0.000225 | chain 1 GLAFWEAKMKQLAERA
1.3e-05 | chain 1 GLAHWEAKMKQLAERA
4.33e-06 | chain 1 GLAKWEAKMKQLAERA
4.33e-06 | chain 1 GLADWEAKMKQLAERA
0.0286 | chain 1 GLAMWEAKMKQLAERA
0.00044 | chain 1 GLAQWEAKMKQLAERA
8.66e-06 | chain 1 GLALWFAKMKQLAERA

screen value | Variant
3.9e-05 | chain 1 GLALWHAKMKQLAERA
1.15e-05 | chain 1 GLALWYAKMKQLAERA
0.000221 | chain 1 GLALWSAKMKQLAERA
8.66e-06 | chain 1 GLALWAAKMKQLAERA
0.000196 | chain 1 GLALWGAKMKQLAERA
1.15e-05 | chain 1 GLALWVAKMKQLAERA
9.38e-05 | chain 1 GLALWDAKMKQLAERA
0.0179 | chain 1 GLALWEAKMKQLAERP
0.027 | chain 1 GLALWEAKMKQLAERD
0.00523 | chain 1 GLALWEAKMKQLAERI
0.00296 | chain 1 GLALWEAKMKQLAERS
8.66e-06 | chain 1 GLALWEAKMKQLAERR
1.58e-05 | chain 1 GLALWEAKMKQLAERY
4.33e-06 | chain 1 GLALWEAKMKQLAERF
6.5e-05 | chain 1 GLALWEAKMKQLAERG
0.00395 | chain 1 GLALWEAKMKQLAERT
0.00138 | chain 1 GLALWEAKMKQLAERQ
0.000143 | chain 1 GLALWEAKMKQLAERM
0.00115 | chain 1 GLALWEAKMKQLAERE
0.00504 | chain 1 GLALWEAKMKQLAERN
0.00901 | chain 1 GLALWEAKMKQLAERV
6.61e-05 | chain 1 GLALWEAKMKQLAERL
2.3e-05 | chain 1 GLALWEAKMKQLAERH
4.33e-06 | chain 1 GPALWEAKMKQLAERA

screen value | Variant
4.33e-06 | chain 1 GRALWEAKMKQLAERA
0.000603 | chain 1 GMALWEAKMKQLAERA
0.00377 | chain 1 GIALWEAKMKQLAERA
4.33e-06 | chain 1 GAALWEAKMKQLAERA
1.3e-05 | chain 1 GKALWEAKMKQLAERA
2.73e-05 | chain 1 GHALWEAKMKQLAERA
0.000401 | chain 1 GWALWEAKMKQLAERA
1.73e-05 | chain 1 GYALWEAKMKQLAERA
1.15e-05 | chain 1 GSALWEAKMKQLAERA
4.33e-06 | chain 1 GTALWEAKMKQLAERA
0.00764 | chain 1 GVALWEAKMKQLAERA
4.18e-05 | chain 1 GFALWEAKMKQLAERA
8.62e-05 | chain 1 GLALWEAKMKQLAENA
0.000816 | chain 1 GLALWEAKMKQLAEGA
0.000187 | chain 1 GLALWEAKMKQLAEHA
0.000386 | chain 1 GLALWEAKMKQLAEKA
0.00031 | chain 1 GLALWEAKMKQLAEEA
4.33e-06 | chain 1 GLALWEAKMKQLAEAA
2.3e-05 | chain 1 GLALWEAKMKQLAEFA
0.000392 | chain 1 GLALWEAKMKQLAEMA
0.000427 | chain 1 GLALWEAKMKQLAELA
7.21e-05 | chain 1 GLALWEAKMKQLAEDA
0.0867 | chain 1 GLALWEAKMKQLAEPA
0.00024 | chain 1 GLALWEAKMIQLAERA

screen value | Variant
0.00689 | chain 1 GLALWEAKMVQLAERA
8.66e-06 | chain 1 GLALWEAKMPQLAERA
0.00214 | chain 1 GLALWEAKMWQLAERA
0.0149 | chain 1 GLALWEAKMAQLAERA
0.000183 | chain 1 GLALWEAKMLQLAERA
8.06e-05 | chain 1 GLALWEAKMFQLAERA
0.0345 | chain 1 GLALWEAKMSQLAERA
0.000152 | chain 1 GLALWEAKMQQLAERA
0.0117 | chain 1 GLALWEAKMHQLAERA
0.00596 | chain 1 GLALWEAKMGQLAERA
0.000154 | chain 1 GLALWEAKMYQLAERA
0.0209 | chain 1 GLALWEAKMEQLAERA
0.00248 | chain 1 GLALWEAKMRQLAERA
0.000192 | chain 1 GLALWEAKMDQLAERA
0.0933 | chain 1 GLALWEAKMNQLAERA
0.00016 | chain 1 GLALWEAKMTQLAERA
1.15e-05 | chain 1 GLALWEAKMMQLAERA
0.00219 | chain 1 GLALWEAKMKQLQERA
2.6e-05 | chain 1 GLALWEAKMKQLKERA
2.45e-05 | chain 1 GLALWEAKMKQLYERA
0.0144 | chain 1 GLALWEAKMKQLGERA
2.6e-05 | chain 1 GLALWEAKMKQLDERA
0.000154 | chain 1 GLALWEAKMKQLLERA
3.6e-05 | chain 1 GLALWEAKMKQLTERA

screen value | Variant
1.3e-05 | chain 1 GLALWEAKMKQLIERA
0.0163 | chain 1 GLALWEAKMKQLVERA
0.0925 | chain 1 GLALWEAKMKQLEERA
5.48e-05 | chain 1 GLALWEAKMKQLPERA
0.0027 | chain 1 GLALWEAKMKQLHERA
5.89e-05 | chain 1 GLALWEAKMKQLMERA
0.000273 | chain 1 GLALWEAKMKQLNERA
4.33e-06 | chain 1 GLFLWEAKMKQLAERA
0.00023 | chain 1 GLMLWEAKMKQLAERA
0.000145 | chain 1 GLSLWEAKMKQLAERA
3.88e-05 | chain 1 GLGLWEAKMKQLAERA
0.000173 | chain 1 GLVLWEAKMKQLAERA
5.18e-05 | chain 1 GLTLWEAKMKQLAERA
1.3e-05 | chain 1 GLKLWEAKMKQLAERA
0.0209 | chain 1 GLDLWEAKMKQLAERA
0.064 | chain 1 GLELWEAKMKQLAERA
0.00817 | chain 1 GLQLWEAKMKQLAERA
8.66e-06 | chain 1 GLHLWEAKMKQLAERA
4.33e-06 | chain 1 GLILWEAKMKQLAERA
0.000177 | chain 1 GLYLWEAKMKQLAERA
4.33e-06 | chain 1 GLLLWEAKMKQLAERA
0.000452 | chain 1 GLPLWEAKMKQLAERA
9.64e-05 | chain 1 GLWLWEAKMKQLAERA
1.73e-05 | chain 1 GLALWEAPMKQLAERA

screen value | Variant
2.3e-05 | chain 1 GLALWEANMKQLAERA
4.33e-06 | chain 1 GLALWEAQMKQLAERA
4.33e-06 | chain 1 GLALWEAEMKQLAERA
4.33e-06 | chain 1 RLALWEAKMKQLAERA
4.46e-05 | chain 1 NLALWEAKMKQLAERA
2.01e-05 | chain 1 KLALWEAKMKQLAERA
8.66e-06 | chain 1 QLALWEAKMKQLAERA
6.35e-05 | chain 1 ELALWEAKMKQLAERA
7.04e-05 | chain 1 GLALWEGKMKQLAERA
0.000234 | chain 1 GLALWEMKMKQLAERA
5.18e-05 | chain 1 GLALWEVKMKQLAERA
5.46e-05 | chain 1 GLALWEPKMKQLAERA
0.00234 | chain 1 GLALWEHKMKQLAERA
4.33e-06 | chain 1 GLALWEFKMKQLAERA
8.66e-06 | chain 1 GLALWEEKMKQLAERA
2.3e-05 | chain 1 GLALWESKMKQLAERA
2.3e-05 | chain 1 GLALWEYKMKQLAERA
0.000194 | chain 1 GLALWENKMKQLAERA
3.9e-05 | chain 1 GLALWEIKMKQLAERA
0.00623 | chain 1 GLALWEQKMKQLAERA
0.0002 | chain 1 GLALWEWKMKQLAERA
4.33e-06 | chain 1 GLALWELKMKQLAERA
0.000404 | chain 1 GLALWETKMKQLAERA
4.33e-06 | chain 1 GLALWERKMKQLAERA

screen value | Variant
2.17e-05 | chain 1 GLALWEAKMKWLAERA
8.66e-06 | chain 1 GLALWEAKMKILAERA
1.15e-05 | chain 1 GLALWEAKMKKLAERA
0.0108 | chain 1 GLALWEAKMKLLAERA
8.66e-06 | chain 1 GLALWEAKMKVLAERA
0.000267 | chain 1 GLALWEAKMKHLAERA
0.00724 | chain 1 GLALWEAKMKDLAERA
4.33e-06 | chain 1 GLALWEAKMKFLAERA
0.000837 | chain 1 GLALWEAKMKGLAERA
0.000162 | chain 1 GLALWEAKMKRLAERA
0.00283 | chain 1 GLALWEAKMKNLAERA
0.000201 | chain 1 GLALWEAKMKMLAERA
0.000142 | chain 1 GLALWEAKMKTLAERA
8.66e-05 | chain 1 GLALWEAKMKYLAERA
3.6e-05 | chain 1 GLALWEAKMKALAERA
0.00344 | chain 1 GLALWEAKMKSLAERA
2.45e-05 | chain 1 GLALWEAKPKQLAERA
0.0119 | chain 1 GLALWEAKSKQLAERA
4.74e-05 | chain 1 GLALWEAKIKQLAERA
0.000181 | chain 1 GLALWEAKTKQLAERA
0.000108 | chain 1 GLALWEAKRKQLAERA
0.00223 | chain 1 GLALWEAKWKQLAERA
4.33e-06 | chain 1 GLALWEAKLKQLAERA
3.16e-05 | chain 1 GLALWEAKQKQLAERA

screen value | Variant
1.73e-05 | chain 1 GLALWEAKNKQLAERA
0.00064 | chain 1 GLALWEAKAKQLAERA
3.9e-05 | chain 1 GLALWEAKYKQLAERA
1.3e-05 | chain 1 GLALWEAKFKQLAERA
1.3e-05 | chain 1 GLALWEAKVKQLAERA
3.75e-05 | chain 1 GLALWEAKHKQLAERA
0.000199 | chain 1 GLALWEAKMKQLAFRA
0.000341 | chain 1 GLALWEAKMKQLAGRA
6.5e-05 | chain 1 GLALWEAKMKQLANRA
2.3e-05 | chain 1 GLALWEAKMKQLAYRA
2.73e-05 | chain 1 GLALWEAKMKQLADRA
4.18e-05 | chain 1 GLALWEAKMKQLAARA
0.000367 | chain 1 GLALWEAKMKQLALRA
0.000238 | chain 1 GLALWEAKMKQLAVRA
4.33e-06 | chain 1 GLALWEAKMKQLAWRA
0.000615 | chain 1 GLALWEAKMKQLAMRA
4.33e-06 | chain 1 GLALWEAKMKQLAIRA
7.32e-05 | chain 1 GLALWEAKMKQLASRA
8.66e-06 | chain 1 GLALWEAKMKQLATRA
4.03e-05 | chain 1 GLALWEAKMKQLAQRA
